Results as given in the supplement of paper PMC12764529.
± gives the half width of the 95% confidence interval.

Key:
[1] = folding stability dG unfold from chymotrypsin proteolysis; higher = more stable
Procedure, shortened: (§1)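 K50 was inferred by Bayesian fitting of sequencing counts obtained after protease digestion of designed mini-proteins. Unfolding free energy was derived by comparison with a sequence-predicted unfolded-state K50 and a shared folded-state K50, for each protease or both combined. The mini-proteins were under 80 residues, had no cysteine, were carried in a PA-tagged cDNA display construct, and were kept only if AlphaFold2 dimer inter-PAE exceeded 15.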

[2] = folding stability dG unfold (combined trypsin and chymotrypsin); higher = more stable
Procedure, shortened: as §1

[3] = folding stability dG unfold from trypsin proteolysis; higher = more stable
Procedure, shortened: as §1

Sequence | folding stability dG unfold [1] [kcal/mol] | folding stability dG unfold [2] [kcal/mol] | folding stability dG unfold [3] [kcal/mol]
SAGGSAGGMPVEVTETPVGTFPDGSTVTRTETVLPGGEVLVETTVTYPDGSSTTTTRRVPPELASAGGSAGG [r6_263_JUSTAS] | 2.41 ± 0.059 | 2.43 ± 0.092 | 2.39 ± 0.084
SAGGSAGGMTAVEVKEETVPITLTSSFFPGGVPVPGAAVSTITITTTTTIEPPTGKTVKVTVAGSAGGSAGG [r6_424_JUSTAS] | -0.658 ± 0.12 | -0.423 ± 0.074 | -0.318 ± 0.037
SAGGSAGGMTFTIPPGKPVTIRVYNRNGELIEEVTVTGAGARIHVSEIPGTGELKITRIDEIPPSAGGSAGG [r6_523_TrMRF] | 2.91 ± 0.071 | 2.72 ± 0.087 | 2.33 ± 0.049
SAGGSAGGMTLKIKVAPGAVIRIYNKDGELIEEIEVEEGEEVEIEIELPEEDLENLRIEILPAPSAGGSAGG [r6_471_TrROS_Hall] | 4.6 ± 0.079 | 4.42 ± 0.25 | 3.96 ± 0.27
SAGGSAGGMTLTLELTLENGKKVRIEVEVNENGSLKVKITYPNGKKVEIEVNMSLEELLKKLLSSAGGSAGG [r6_808_TrROS_Hall] | 3.66 ± 0.14 | 3.91 ± 0.29 | 3.75 ± 0.26
SAGGSAGGMTTTEISTKKLPDGTWATTVTTTTITATNGVPVTTSTPTTIINPGDPSVAIAAALSSAGGSAGG [r6_129_JUSTAS] | -1 ± 0.29 | -0.173 ± 0.057 | 0.209 ± 0.013
SAGGSAGGMTVTTTSSFDPTSPTANTLTTTYVSPEELKRPEIQALPDLPGKTLEFPTTTPVPPPSAGGSAGG [r6_768_JUSTAS] | 0.0452 ± 0.048 | 0.431 ± 0.085 | 0.679 ± 0.031
SAGGSAGGMVETKLVESEELPGNRRVLTYRVTEPDSLYRVTVELTLDPSGTVLSSKTTTEPIPLSAGGSAGG [r6_20_JUSTAS] | 1.12 ± 0.093 | 1.04 ± 0.073 | 0.846 ± 0.053
SAGGSAGGMVIEGRIKIVSPDGGEKEIPVVLFIPESFPDANLEELAEAIAKEILPPGYKADFEGSAGGSAGG [r6_821_TrMRF] | 1 ± 0.023 | 0.879 ± 0.17 | 0.601 ± 0.065
SAGGSAGGMVIKIITNAPSLEEAEEIAKRVAAELRERFGGPDVEIVLDVEVIPLPPVPTEDGKPSAGGSAGG [r6_182_TrMRF] | 1.97 ± 0.16 | 1.82 ± 0.092 | 1.38 ± 0.053
SAGGSAGGMVISLPNNYKIKLGITDAEFDEVKVYTGPNGPKKLVSGANIKLKIGISIYKSNDNSSAGGSAGG [r6_585_TrMRF] | 1.43 ± 0.19 | 1.4 ± 0.17 | 1.24 ± 0.036
SAGGSAGGMVKVSSDPATGKVYVTYPGADPEAVAEKVKKEYGAKKIKVEKDPNKDVTTITITVESAGGSAGG [r6_662_JUSTAS] | 0.271 ± 0.14 | -0.0511 ± 0.19 | -1.01 ± 0.45
SAGGSAGGMVLRITLPNGEVIEIPLEELGLSEEERKRRLAELLAEELRKLFPGKEIKVEVVELPSAGGSAGG [r6_164_TrROS_Hall] | 4 ± 0.057 | 3.83 ± 0.14 | 3.54 ± 0.08
SAGGSAGGMVRFDPAGGRLFLDGVPVELSEVLSVESLEEEGRVRVEALLVDGSRLEFEIPKEALSAGGSAGG [r6_682_JUSTAS] | 2.323 ± 0.021 | 2.13 ± 0.029 | 1.73 ± 0.036
SAGGSAGGMVTIASITFEEDPEGGITVTVYLPSNGKTITVPVPADTPEAEARARAEAAARAYAASAGGSAGG [r6_628_JUSTAS] | 1.49 ± 0.098 | 1.28 ± 0.15 | 0.894 ± 0.028
SAGGSAGGMVTSSVSALPDGSYRLTITYPDGTVLTFEFDSEEEVAALLAELAEALPADAAVPLASAGGSAGG [r6_464_JUSTAS] | 1.65 ± 0.046 | 1.71 ± 0.065 | 1.64 ± 0.059
SAGGSAGGMVVERKDMDPEEAVEDTKKRIKEETGWEVTEITVTEFPEEPRLVVTIKVKKPPEKSSAGGSAGG [r6_462_JUSTAS] | 0.71 ± 0.016 | 0.408 ± 0.098 | -0.287 ± 0.11
SAGGSAGGMVVRVTLPDGTVVTFEFESEEEFRKEFAASLGLAPDEIPEERIVSVERLSPEEYRSSAGGSAGG [r6_588_JUSTAS] | 1.64 ± 0.11 | 1.59 ± 0.086 | 1.26 ± 0.039
SAGGSAGGMYKVTITVTDPATGKTVATETLTLESEEEAKEYVEAVKKELPSSLTVSATITKVPESAGGSAGG [r6_690_JUSTAS] | 4.41 ± 0.072 | 4.58 ± 0.12 | 4.77 ± 0.46
SAGGSAGGMYTKTYNVPPDWKVTATATAPGGATVTDSSAPNGNFTLTFPASLADATTFTVTVTPSAGGSAGG [r6_237_JUSTAS] | 0.641 ± 0.13 | 0.285 ± 0.14 | -0.869 ± 0.47
SAGGSAGGNEIAEKLKKKYPNIKIKSVKINPKEGKIEIDLGFPKDAKPETIKKIEKEIEELAKKSAGGSAGG [r6_97_TrMRF] | 0.442 ± 0.14 | 0.646 ± 0.34 | 0.578 ± 0.056

Sequence | folding stability dG unfold [1] [kcal/mol] | folding stability dG unfold [2] [kcal/mol] | folding stability dG unfold [3] [kcal/mol]
SAGGSAGGNGPPDIKIKIEILEVHPGHRDPDGKYYFRVRVEIEYPNKPVKVDFPMPADDAKDLISAGGSAGG [r6_724_TrROS] | 4.2 ± 0.092 | 3.66 ± 0.15 | 2.93 ± 0.11
SAGGSAGGNLTLPPDNIKRIWHVGDGHWLIKMDDNVLMINPGNGKIQTVKKEDADKLPPGDPFFSAGGSAGG [r6_890_TrROS] | 0.0704 ± 0.19 | 0.0115 ± 0.15 | -0.473 ± 0.2
SAGGSAGGNPDLVITFPDGVKITVHPDGTITITRFIPGRDVPVGTRTITVPAPDGIPLEELLKYSAGGSAGG [r6_572_TrMRF] | 1.2 ± 0.059 | 1.13 ± 0.13 | 0.887 ± 0.062
SAGGSAGGNPVRYRVTITVTSPTGGSPVIELELDDPAELAEVEALAAELAAAPVTTTVTVEPIGSAGGSAGG [r6_743_JUSTAS] | 0.584 ± 0.14 | 0.807 ± 0.072 | 1.02 ± 0.049
SAGGSAGGNVLIPKSKLEEFLKNIPFEVLVLNPENPRLEIARVEADDIFVDDDYALILLTVSNDSAGGSAGG [r6_753_TrMRF] | 0.221 ± 0.18 | 0.742 ± 0.12 | 1 ± 0.032
SAGGSAGGPEIKVLEVRKLPDGSFEFIVEVPPGDAEKIKSGTVVKIKFGDKEYDVTVEVIPTEGSAGGSAGG [r6_372_TrMRF] | 2.52 ± 0.051 | 2.24 ± 0.045 | 1.73 ± 0.038
SAGGSAGGPFVLKFPDPKNMNKLQEAASDHGMNMNRNPEKGTHVINFGGNMLDELQELPGIEIVSAGGSAGG [r6_726_TrROS] | -1.1 ± 0.61 | -0.769 ± 0.24 | -1.05 ± 0.15
SAGGSAGGPIDLDDIKIEEIEHERNPNGMMYHEVTIRFPGGKIPVWFHPNMSLDNAVDMLRAFISAGGSAGG [r6_233_TrROS] | 0.814 ± 0.11 | 1.19 ± 0.11 | 1.4 ± 0.092
SAGGSAGGPKKIKITNIEYPNGYWRVKISLPNGKEVEYPMDSPDDALDWAEDDGIKEVEIEKYNSAGGSAGG [r6_601_TrROS] | 0.358 ± 0.28 | 0.159 ± 0.18 | -0.429 ± 0.49
SAGGSAGGPLVLRIETPEDKVLVLVLPEEAEKLPPKELAEIAAKEFAALPGVKEVKVEIAPLPLSAGGSAGG [r6_710_TrMRF] | 1.11 ± 0.15 | 1.03 ± 0.12 | 0.885 ± 0.058
SAGGSAGGPLYRVLILLKKPNGEPLLLPLVAEDPEKALELAERLRKEYEEKGYELVAVEIYEFPSAGGSAGG [r6_869_TrMRF] | 5.26 ± 0.13 | 5.22 ± 0.22 | 4.37 ± 0.22
SAGGSAGGPMSAEELARFLANEFHKKHGMPPGHRVKIPVKWRDPEDGNEQEVTIEIPIRMPKGDSAGGSAGG [r6_799_TrROS] | 1.4 ± 0.083 | 1.2 ± 0.16 | 0.32 ± 0.17
SAGGSAGGPNIRIIIKPDPENGTLKIWFVHPEPGRIQKYEFNMNGKWKIKEPVGPMKPGDPGLLSAGGSAGG [r6_149_TrROS] | 1.52 ± 0.33 | 1.33 ± 0.34 | 0.668 ± 0.16
SAGGSAGGPPDIVTLPIWIGGLKVEIMVYPDGSVTIMFRFPDWYYMITFPLKNGKIEIEWVPLKSAGGSAGG [r6_555_TrROS] | 3.54 ± 0.1 | 3.35 ± 0.22 | 3.16 ± 0.11
SAGGSAGGPSPNQPERQQVQVEAKIRFPDPNGKEWTIEITAYGSVGDARDAARSLAREIKNGKISAGGSAGG [r6_944_TrROS] | -0.782 ± 0.49 | -0.484 ± 0.16 | -0.494 ± 0.17
SAGGSAGGPSYTIQFPYPPGMPPWRLQKLLEEAGYPPPEIEYNPKNGSHWITFSPEVRDAFKELSAGGSAGG [r6_307_TrROS] | 0.845 ± 0.17 | 0.676 ± 0.21 | 0.476 ± 0.1
SAGGSAGGPVITFPWNDIPELLERARENGDPEYYIRVSPDDPGNFTIMPPEEAEENGMPVIPLDSAGGSAGG [r6_710_TrROS] | -0.656 ± 0.46 | -0.668 ± 0.33 | -0.976 ± 0.45
SAGGSAGGPVSVDPSTGTVTITVPPGTATPVVEAIAAALGLPVETATTPLPDGTTTVTVTIPAASAGGSAGG [r6_419_JUSTAS] | 0.816 ± 0.1 | 0.844 ± 0.22 | 0.733 ± 0.1
SAGGSAGGRFTVQFRVPGTLEEAREKAEEIAENLPPNFKDVEVDIEPHPKNGWIRVEVQIKMKKSAGGSAGG [r6_164_TrROS] | 1.07 ± 0.16 | 1.01 ± 0.31 | 0.991 ± 0.16
SAGGSAGGRVVLSAEEIEKLKPGDEIELLVRDKETGEWRRVKARVVRIERVGDRVYVEIEIEPESAGGSAGG [r6_753_TrROS_Hall] | 4.19 ± 0.057 | 4.29 ± 0.12 | 4.53 ± 0.25
SAGGSAGGRWYIMIEIRFPGNGRQFSFMIPIPPGDEVDIKLDELAEWFGFPNVKVDIQVMPLEKSAGGSAGG [r6_722_TrROS] | 4.75 ± 0.12 | 4.45 ± 0.18 | 3.41 ± 0.3
